Among the data in patent US20120263644A1 are IC50 of inhibition of proliferation of Jurkat cells (CellTiter Glo) values, retold here.

The experiment addresses leukocyte function antigen-1 (LFA-1), composed of CD11a and CD18, on human white blood cells (human) (UniProt P20701). Nature of the experiment: cell-based or functional assay.

Sequence of leukocyte function antigen-1 (LFA-1), composed of CD11a and CD18, on human white blood cells (human) (P20701 26-1170, chain 1 of 2): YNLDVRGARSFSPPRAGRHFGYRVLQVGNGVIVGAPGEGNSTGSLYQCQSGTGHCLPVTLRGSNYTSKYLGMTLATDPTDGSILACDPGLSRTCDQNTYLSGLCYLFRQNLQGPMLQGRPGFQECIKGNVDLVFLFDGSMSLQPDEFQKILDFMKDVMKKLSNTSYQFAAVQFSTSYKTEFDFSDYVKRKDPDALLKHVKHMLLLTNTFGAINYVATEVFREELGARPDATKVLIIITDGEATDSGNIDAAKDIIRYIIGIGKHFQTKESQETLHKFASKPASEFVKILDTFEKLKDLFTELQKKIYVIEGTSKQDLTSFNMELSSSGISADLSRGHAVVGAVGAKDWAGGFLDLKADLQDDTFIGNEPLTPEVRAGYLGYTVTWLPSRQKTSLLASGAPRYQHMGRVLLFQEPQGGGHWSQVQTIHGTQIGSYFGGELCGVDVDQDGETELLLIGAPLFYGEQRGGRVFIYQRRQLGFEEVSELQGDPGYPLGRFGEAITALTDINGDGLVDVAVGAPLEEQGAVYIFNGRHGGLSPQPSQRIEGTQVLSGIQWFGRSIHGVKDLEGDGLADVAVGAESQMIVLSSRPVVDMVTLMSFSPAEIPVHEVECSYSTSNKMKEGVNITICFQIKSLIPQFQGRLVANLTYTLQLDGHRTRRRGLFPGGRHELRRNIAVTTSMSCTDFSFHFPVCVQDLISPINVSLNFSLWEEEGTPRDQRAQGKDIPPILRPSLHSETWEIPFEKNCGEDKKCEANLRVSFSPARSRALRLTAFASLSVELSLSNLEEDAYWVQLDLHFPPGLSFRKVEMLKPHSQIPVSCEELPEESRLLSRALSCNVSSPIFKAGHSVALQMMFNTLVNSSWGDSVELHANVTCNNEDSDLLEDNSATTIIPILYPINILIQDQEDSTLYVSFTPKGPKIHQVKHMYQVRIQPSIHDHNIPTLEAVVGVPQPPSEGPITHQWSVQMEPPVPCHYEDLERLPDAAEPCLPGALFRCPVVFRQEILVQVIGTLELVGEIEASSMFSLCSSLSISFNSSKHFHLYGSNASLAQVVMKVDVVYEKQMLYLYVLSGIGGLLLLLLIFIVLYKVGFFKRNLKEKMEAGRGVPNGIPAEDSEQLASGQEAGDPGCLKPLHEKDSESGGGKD
Sequence of leukocyte function antigen-1 (LFA-1), composed of CD11a and CD18, on human white blood cells (human) (P05107 23-769, chain 2 of 2, further chain): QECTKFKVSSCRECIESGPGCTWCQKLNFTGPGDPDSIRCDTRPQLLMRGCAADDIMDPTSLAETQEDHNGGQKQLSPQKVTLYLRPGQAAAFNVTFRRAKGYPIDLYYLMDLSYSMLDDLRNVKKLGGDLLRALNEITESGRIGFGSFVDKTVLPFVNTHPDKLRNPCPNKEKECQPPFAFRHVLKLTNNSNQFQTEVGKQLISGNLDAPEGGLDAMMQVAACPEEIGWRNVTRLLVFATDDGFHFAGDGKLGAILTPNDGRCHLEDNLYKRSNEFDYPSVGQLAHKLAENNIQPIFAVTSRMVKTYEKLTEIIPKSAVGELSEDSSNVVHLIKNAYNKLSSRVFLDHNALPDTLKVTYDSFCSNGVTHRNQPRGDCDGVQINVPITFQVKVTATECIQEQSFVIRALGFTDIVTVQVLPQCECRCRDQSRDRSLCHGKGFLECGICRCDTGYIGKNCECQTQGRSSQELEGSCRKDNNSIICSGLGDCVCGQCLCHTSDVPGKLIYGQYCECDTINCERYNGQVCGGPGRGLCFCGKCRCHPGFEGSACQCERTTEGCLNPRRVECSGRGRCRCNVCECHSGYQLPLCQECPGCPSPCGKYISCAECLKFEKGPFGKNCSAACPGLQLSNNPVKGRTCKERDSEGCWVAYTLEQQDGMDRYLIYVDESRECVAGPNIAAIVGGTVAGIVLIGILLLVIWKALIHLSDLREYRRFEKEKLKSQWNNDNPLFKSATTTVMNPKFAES

For the substance “Efalizumab (RAPTIVA), anti-LFA-1 mAb (antibody)”, the IC50 of inhibition of proliferation of Jurkat cells (CellTiter Glo) amounted to 5000 µg/mL.
